Experiments:
HeLa Kyoto [1] = assay: solubility change mitosis vs G1/S (difference of NP-40 vs SDS log2 ratios) (log2 ratio difference); higher = more soluble in mitosis
HeLa Kyoto [2] = assay: thermal stability score vs G1/S (z-score of summed log2 fold changes over temperatures); higher = more thermally stable than in G1/S
HeLa Kyoto [3] = assay: solubility in G1/S (NP-40 vs SDS abundance) (log2 ratio); higher = more soluble; conditions: cell cycle stage: G1/S
HeLa Kyoto [4] = assay: melting temperature (median over replicates), in situ; higher = more thermally stable
[5] = cell cycle stage: early G1 (4.5 h after nocodazole release)
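Throughout, for melting temperature (median over replicates), in situ: HeLa Kyoto cells synchronized by double thymidine or nocodazole block, proteins quantified by TMT10plex mass spectrometry, three independent biological replicates.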
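Throughout, for solubility change mitosis vs G1/S (difference of NP-40 vs SDS log2 ratios): synchronized HeLa Kyoto cells (double thymidine block for G1/S, nocodazole release for mitosis), protein amounts in NP-40 versus SDS lysates quantified by mass spectrometry, three biological replicates.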
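Throughout, for solubility in G1/S (NP-40 vs SDS abundance): HeLa Kyoto cells arrested at G1/S by double thymidine block, proteins quantified by TMT10plex mass spectrometry in mild NP-40 versus SDS extracts, three biological replicates.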
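Throughout, for thermal stability score vs G1/S (z-score of summed log2 fold changes over temperatures): synchronized HeLa Kyoto cells, proteins quantified by TMT10plex mass spectrometry, three biological replicates, mitosis taken 0.5 h after nocodazole release, G1/S directly after double thymidine block.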

| Sequence | solubility change mitosis (log2) (HeLa Kyoto [1]) | thermal stability score (HeLa Kyoto [2]; [5]) | thermal stability score (HeLa Kyoto [2]; cell cycle stage: mitosis) | solubility in G1/S (log2) (HeLa Kyoto [3]) | melting temperature (HeLa Kyoto [4]; cell cycle stage: G1/S) [°C] | melting temperature (HeLa Kyoto [4]; cell cycle stage: mitosis) [°C] |
| --- | --- | --- | --- | --- | --- | --- |
| MAAPALRLCHIAFHVPAGQPLARNLQRLFGFQPLASREVDGWRQLALRSGDAVFLVNEGAGSGEPLYGLDPRHAVPSATNLCFDVADAGAATRELAALGCSVPVPPVRVRDAQGAATYAVVSSPAGILSLTLLERAGYRGPFLPGFRPVSSAPGPGWVSRVDHLTLACTPGSSPTLLRWFHDCLGFCHLPLSPGEDPELGLEMTAGFGLGGLRLTALQAQPGSIVPTLVLAESLPGATTRQDQVEQFLARHKGPGLQHVGLYTPNIVEATEGVATAGGQFLAPPGAYYQQPGKERQIRAAGHEPHLLARQGILLDGDKGKFLLQVFTKSLFTEDTFFLELIQRQGATGFGQGNIRALWQSVQEQSARSQEA [HPDL] | -0.0348 | 1.41 | 0.476 | 0.23 | 53.9 | 52.8 |
| MGAFLDKPKTEKHNAHGAGNGLRYGLSSMQGWRVEMEDAHTAVVGIPHGLEDWSFFAVYDGHAGSRVANYCSTHLLEHITTNEDFRAAGKSGSALELSVENVKNGIRTGFLKIDEYMRNFSDLRNGMDRSGSTAVGVMISPKHIYFINCGDSRAVLYRNGQVCFSTQDHKPCNPREKERIQNAGGSVMIQRVNGSLAVSRALGDYDYKCVDGKGPTEQLVSPEPEVYEILRAEEDEFIILACDGIWDVMSNEELCEYVKSRLEVSDDLENVCNWVVDTCLHKGSRDNMSIVLVCFSNAPKVSDEAVKKDSELDKHLESRVEEIMEKSGEEGMPDLAHVMRILSAENIPNLPPGGGLAGKRNVIEAVYSRLNPHRESDGASDEAEESGSQGKLVEALRQMRINHRGNYRQLLEEMLTSYRLAKVEGEESPAEPAATATSSNSDAGNPVTMQESHTESESGLAELDSSNEDAGTKMSGEKI [PPM1B] | 0.0659 | 0.54 | -0.803 | -0.164 | 52.9 | 52.6 |
| MSFICGLQSAARNHVFFRFNSLSNWRKCNTLASTSRGCHQVQVNHIVNKYQGLGVNQCDRWSFLPGNFHFYSTFNNKRTGGLSSTKSKEIWRITSKCTVWNDAFSRQLLIKEVTAVPSLSVLHPLSPASIRAIRNFHTSPRFQAAPVPLLLMILKPVQKLFAIIVGRGIRKWWQALPPNKKEVVKENIRKNKWKLFLGLSSFGLLFVVFYFTHLEVSPITGRSKLLLLGKEQFRLLSELEYEAWMEEFKNDMLTEKDARYLAVKEVLCHLIECNKDVPGISQINWVIHVVDSPIINAFVLPNGQMFVFTGFLNSVTDIHQLSFLLGHEIAHAVLGHAAEKAGMVHLLDFLGMIFLTMIWAICPRDSLALLCQWIQSKLQEYMFNRPYSRKLEAEADKIGLLLAAKACADIRASSVFWQQMEFVDSLHGQPKMPEWLSTHPSHGNRVEYLDRLIPQALKIREMCNCPPLSNPDPRLLFKLSTKHFLEESEKEDLNITKKQKMDTLPIQKQEQIPLTYIVEKRTGS [OMA1] | -0.0922 | -1.79 | -1.54 | -0.436 | 54.1 | 54.7 |
| MPPKKQAQAGGSKKAEQKKKEKIIEDKTFGLKNKKGAKQQKFIKAVTHQVKFGQQNPRQVAQSEAEKKLKKDDKKKELQELNELFKPVVAAQKISKGADPKSVVCAFFKQGQCTKGDKCKFSHDLTLERKCEKRSVYIDARDEELEKDTMDNWDEKKLEEVVNKKHGEAEKKKPKTQIVCKHFLEAIENNKYGWFWVCPGGGDICMYRHALPPGFVLKKDKKKEEKEDEISLEDLIERERSALGPNVTKITLESFLAWKKRKRQEKIDKLEQDMERRKADFKAGKALVISGREVFEFRPELVNDDDEEADDTRYTQGTGGDEVDDSVSVNDIDLSLYIPRDVDETGITVASLERFSTYTSDKDENKLSEASGGRAENGERSDLEEDNEREGTENGAIDAVPVDENLFTGEDLDELEEELNTLDLEE [ZC3H15] | -0.0422 | 0.581 | -2.59 | -0.131 | 54.1 | 53.6 |
| MADQPKPISPLKNLLAGGFGGVCLVFVGHPLDTVKVRLQTQPPSLPGQPPMYSGTFDCFRKTLFREGITGLYRGMAAPIIGVTPMFAVCFFGFGLGKKLQQKHPEDVLSYPQLFAAGMLSGVFTTGIMTPGERIKCLLQIQASSGESKYTGTLDCAKKLYQEFGIRGIYKGTVLTLMRDVPASGMYFMTYEWLKNIFTPEGKRVSELSAPRILVAGGIAGIFNWAVAIPPDVLKSRFQTAPPGKYPNGFRDVLRELIRDEGVTSLYKGFNAVMIRAFPANAACFLGFEVAMKFLNWATPNL [SLC25A20] | -0.108 | -1.89 | -0.401 | -0.0167 | 58 | 56.7 |

Reference: the supplement of paper PMC5998384
